Data reported in US20250296995A1 (GlaxoSmithKline, published 2025).
Values joined by “and” are separate entries in the source; they are usually repeats but may differ in a detail not shown here. Identical values can stand only once.

How the values were obtained:
[1] = target: T1, recombinant Plasmodium falciparum circumsporozoite protein (CSP) (Plasmodium falciparum, UniProt P19597 21-375); experiment: cell-based or functional assay
[2] = target: T1, recombinant Plasmodium falciparum …; experiment: cell-based or functional assay; remark: listed apart in the source
[3] = target: T1, recombinant Plasmodium falciparum …; experiment: SPR, recombinant CSP; n=1
[4] = target: T1, recombinant Plasmodium falciparum …; experiment: SPR, recombinant CSP; geometric mean, n=3
human FcRn = target: T2, human FcRn (human, UniProt P55899 24-297; P61769 21-119); experiment: SPR, human FcRn, pH 6.0
T2 construct: also called neonatal Fc receptor
T2 sequence (P55899 24-297 limits assumed, form in doubt, chain 1 of 2): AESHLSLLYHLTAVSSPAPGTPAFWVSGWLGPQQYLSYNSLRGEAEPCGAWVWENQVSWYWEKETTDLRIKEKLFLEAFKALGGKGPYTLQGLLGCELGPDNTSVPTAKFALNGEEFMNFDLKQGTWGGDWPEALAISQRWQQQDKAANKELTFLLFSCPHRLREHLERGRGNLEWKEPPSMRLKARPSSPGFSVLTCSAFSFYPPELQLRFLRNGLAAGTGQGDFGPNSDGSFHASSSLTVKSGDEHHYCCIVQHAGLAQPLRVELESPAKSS
T2 sequence (P61769 21-119 limits assumed, form in doubt, chain 2 of 2): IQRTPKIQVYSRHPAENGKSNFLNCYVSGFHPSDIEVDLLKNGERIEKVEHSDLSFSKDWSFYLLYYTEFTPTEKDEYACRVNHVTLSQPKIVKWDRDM

[5] = target: T1, recombinant Plasmodium falciparum …; experiment: cell-based or functional assay; remark: listed apart in the source
human FcγRI = target: T3, human FcγRI (human, UniProt P12314 16-288); experiment: SPR, human FcγR
T3 construct: also called hFcγRI; CD64
T3 sequence (P12314 16-288 limits assumed): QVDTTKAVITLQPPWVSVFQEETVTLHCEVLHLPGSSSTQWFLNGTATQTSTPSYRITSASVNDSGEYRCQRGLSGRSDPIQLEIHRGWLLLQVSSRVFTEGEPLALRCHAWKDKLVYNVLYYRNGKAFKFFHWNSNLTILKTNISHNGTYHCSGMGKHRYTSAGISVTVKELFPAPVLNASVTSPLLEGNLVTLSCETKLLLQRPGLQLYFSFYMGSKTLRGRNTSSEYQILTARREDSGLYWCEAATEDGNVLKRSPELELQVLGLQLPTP
Description: (§1) A human IgG1 antibody in both WT and Fc silenced (LAGA) formats were included as negative control.

human FcγRIIIa (V158) = target: T4, human FcγRIIIa (V158) (human, UniProt P08637 17-208); experiment: SPR, human FcγR
T4 construct: also called hFcγRIIIaV
T4 sequence (P08637 17-208 F176V limits assumed): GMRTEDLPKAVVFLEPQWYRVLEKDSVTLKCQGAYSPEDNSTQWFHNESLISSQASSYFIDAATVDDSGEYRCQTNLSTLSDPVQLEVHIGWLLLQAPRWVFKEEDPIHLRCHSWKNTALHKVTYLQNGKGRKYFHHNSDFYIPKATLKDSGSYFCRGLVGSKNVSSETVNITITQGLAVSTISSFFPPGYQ
Description: as §1

human FcγRIIa (R131) = target: T5, human FcγRIIa (R131) (human, UniProt P12318 36-218); experiment: SPR, human FcγR
T5 construct: also called hFcγRIIaR
T5 sequence (looked up): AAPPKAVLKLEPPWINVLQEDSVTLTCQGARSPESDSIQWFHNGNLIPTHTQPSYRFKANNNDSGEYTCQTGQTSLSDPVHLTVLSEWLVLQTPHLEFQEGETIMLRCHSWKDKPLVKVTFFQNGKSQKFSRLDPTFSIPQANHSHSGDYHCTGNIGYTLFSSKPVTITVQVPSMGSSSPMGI
Description: as §1

human FcγRIIb = target: T6, human FcγRIIb (human, UniProt P31994 43-217); experiment: SPR, human FcγR
T6 construct: also called hFcγRIIb
T6 sequence (looked up): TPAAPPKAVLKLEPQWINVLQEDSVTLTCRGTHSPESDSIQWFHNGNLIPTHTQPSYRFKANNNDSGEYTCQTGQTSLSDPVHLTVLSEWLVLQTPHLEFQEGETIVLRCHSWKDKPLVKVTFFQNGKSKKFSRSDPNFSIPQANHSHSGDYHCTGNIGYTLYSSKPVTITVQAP
Description: as §1

human FcγRIIa (H131) = target: T7, human FcγRIIa (H131) (human, UniProt P12318 36-218); experiment: SPR, human FcγR
T7 construct: also called hFcγRIIaH
T7 sequence (looked up): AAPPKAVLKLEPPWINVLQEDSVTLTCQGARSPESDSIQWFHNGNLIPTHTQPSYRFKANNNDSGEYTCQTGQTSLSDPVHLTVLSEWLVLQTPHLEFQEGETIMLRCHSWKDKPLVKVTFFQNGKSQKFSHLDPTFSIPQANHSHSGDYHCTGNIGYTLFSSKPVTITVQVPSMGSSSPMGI
Description: as §1

human FcγRIIIa (F158) = target: T8, human FcγRIIIa (F158) (human, UniProt P08637 17-208); experiment: SPR, human FcγR
T8 construct: also called hFcγRIIIaF
T8 sequence (P08637 17-208 limits assumed): as the sequence (P08637 17-208 F176V limits assumed) above, with V160F counted along it
Description: as §1

T1 sequence (P19597 21-375 limits assumed): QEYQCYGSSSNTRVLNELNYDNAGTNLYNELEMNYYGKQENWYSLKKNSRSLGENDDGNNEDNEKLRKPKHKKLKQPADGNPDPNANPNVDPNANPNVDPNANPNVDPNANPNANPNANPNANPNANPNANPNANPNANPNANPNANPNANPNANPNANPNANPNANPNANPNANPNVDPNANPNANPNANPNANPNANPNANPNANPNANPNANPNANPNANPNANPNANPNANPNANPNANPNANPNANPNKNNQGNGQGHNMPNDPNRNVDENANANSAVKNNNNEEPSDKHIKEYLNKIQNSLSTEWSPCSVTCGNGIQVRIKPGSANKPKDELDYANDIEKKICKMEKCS

B1: AB-000356 ALE LS (antibody, human IgG1, kappa)
heavy: QVQLVESGGGVVQPGRSLRLSCAASGFTFRNFGMHWVRQTPGKGLEWVAVIWHDGSNKFYADSVEGRFTISRDNSKNMIYLQMNSLRVEDTAIYYCARDSLFYDHDNSGYYGYWGQGTLVTVSSASTKGPSVFPLAPSSKSTSGGTAALGCLVKDYFPEPVTVSWNSGALTSGVHTFPAVLQSSGLYSLSSVVTVPSSSLGTQTYICNVNHKPSNTKVDKKVEPKSCDKTHTCPPCPAPELLAGPSVFLFPPKPKDTLMISRTPEVTCVVVDVSHEDPEVKFNWYVDGVEVHNAKTKPREEQYNSTYRVVSVLTVLHQDWLNGKEYKCKVSNKALPLPEEKTISKAKGQPREPQVYTLPPSRDELTKNQVSLTCLVKGFYPSDIAVEWESNGQPENNYKTTPPVLDSDGSFFLYSKLTVDKSRWQQGNVFSCSVLHEALHSHYTQKSLSLSPGK
light: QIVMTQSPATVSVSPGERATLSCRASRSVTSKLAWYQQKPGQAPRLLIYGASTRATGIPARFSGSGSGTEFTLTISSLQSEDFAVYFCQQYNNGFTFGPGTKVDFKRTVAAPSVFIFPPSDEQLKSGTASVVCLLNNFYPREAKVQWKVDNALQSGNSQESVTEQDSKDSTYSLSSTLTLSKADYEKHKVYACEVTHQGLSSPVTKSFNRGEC
In the case of B1, the “GeoMean EC50 (M), ADCP repeat, n=4” value [1] is reported as 6.45e-13 M, the “Mean EC50 (pM), ADCP repeat, n=4” value [1] is reported as 0.6 pM and the “Mean pEC50, ADCP repeat, n=4” value [1] is reported as 12.2. For the same binder, the “GeoMean EC50 (M), ADCP” value [2] was 5.03e-13 M, the “Mean EC50 (pM), ADCP” value [2] was 0.5 pM and the “Mean pEC50, ADCP” value [2] was 12.3. It also gave a Kd [3] of 1.58 nM, a Kd [4] of 1.1 nM and a Kd (human FcRn) of 52 nM. For the same binder, the “Geo Mean EC50 (ug/ml), ADNKA, Donor 1” value [5] was 0.0052 µg/mL, the “Geo Mean EC50 (ug/ml), ADNKA, Donor 2” value [5] was 0.0035 µg/mL and the “Geo Mean EC50 (ug/ml), ADNKA, Donor 3” value [5] was 0.189 µg/mL. The “Geo Mean EC50 (ug/ml), ADNKA, Donor 4” value [5] was 0.0104 µg/mL, the Kd (human FcγRI) was 56 nM and 157 nM and the Kd (human FcγRIIIa (V158)) was 73 nM and 144 nM. For the same binder, the Kd (human FcγRIIa (R131)) was 675 nM and 766 nM, the Kd (human FcγRIIb) was 3890 nM and the Kd (human FcγRIIa (H131)) was 218 nM and 268 nM. The Kd (human FcγRIIIa (F158)) was 89 nM and 246 nM.
